Experiments:
[1] = biological target: T1, human CD33 ECD 18-232-His (human, UniProt P20138 18-232); assay: SPR, Biacore 8K, antibody captured on Protein A chip, CD33 ECD-His as analyte, 37 C, 1:1 model
T1 construct: Printed as 'CD33 ECD 18-232-His'; also called human CD33 extra-cellular domain; not shown: His tag
Procedure: (§1) The affinity and binding kinetics of the exemplified anti-human CD33 antibodies to human and cynomolgus monkey CD33 ECD 18-232-His proteins was determined by surface plasmon resonance using Biacore 8K (GE Healthcare). Briefly, per the Instrument Handbook the antibody was captured on a Biacore Protein A chip followed by flowing CD33 ECD from 200 nM down to 0.782 nM in 2-fold serial dilution in PBS-P20-BSA (0.005% surfactant P20, 0.1 mg/mL BSA). All measurements were carried out at 37° C. Multi-cycle kinetics setting that ran each analyte concentration in a separate cycle regenerating the surface after each sample injection was used. The regeneration was optimized to maintain consistent surface properties from cycle to cycle. Each cycle started with a 3 minute injection of 0.1 μg/mL of the antibody at 10 μl/min flow rate, followed by 3 min injection of antigen at 50 μl/min flow rate and a 15 min dissociation phase in PBS-P20-BSA. The chip surface was then regenerated with 30 seconds injection of pH 1.5, 10 mM glycine buffer at 50 μl/min flow rate three times. The data was fit to a 1:1 binding model to derive kₐ and kd, and to calculate KD.

[2] = biological target: T2, cynomolgus monkey CD33 ECD 18-232-His (cynomolgus monkey); assay: as above
T2 construct: also called cynomolgus monkey CD33 extra-cellular domain; not shown: His tag
Procedure: as §1

[3] = biological target: T1, human CD33 ECD 18-232-His; assay: SPR, Biacore 8K, conjugate captured on Protein A chip, CD33 ECD-His as analyte, 37 C, 1:1 model
Procedure: as §1

[4] = biological target: T2, cynomolgus monkey CD33 ECD 18-232-His; assay: as above
Procedure: as §1

[5] = biological target: T3, human CD33 on the cell surface of human monocytes / myeloid cells (human, UniProt P20138 18-364); assay: FACS on human monocytes (gated from human PBMC), Alexa Fluor 647-labelled antibody, 4-fold dilutions, 30 min at 4 C, mean fluorescence intensity
T3 construct: Native CD33 on primary human monocytes from PBMC; also called cell surface CD33; SIGLEC-3
Procedure: Freshly isolated cells PBMCs were resuspended at 2×10⁶ cells/mL and allowed to rest for 15 minutes at room temperature, then plated at 100 μL/well into a round bottom 96-well plate (COSTAR®) and washed with FACS buffer (PBS containing 2% fetal bovine serum from Corning®). […] Data analysis was performed using FlowJo software and statistical analysis was performed using GraphPad Prism 9.

T2 sequence (chain, as listed by the source): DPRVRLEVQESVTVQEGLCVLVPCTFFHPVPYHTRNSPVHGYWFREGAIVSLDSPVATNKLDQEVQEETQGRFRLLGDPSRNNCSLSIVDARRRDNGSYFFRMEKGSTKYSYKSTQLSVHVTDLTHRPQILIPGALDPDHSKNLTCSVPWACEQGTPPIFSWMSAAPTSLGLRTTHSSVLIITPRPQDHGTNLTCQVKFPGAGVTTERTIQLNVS
T1 sequence (P20138 18-232): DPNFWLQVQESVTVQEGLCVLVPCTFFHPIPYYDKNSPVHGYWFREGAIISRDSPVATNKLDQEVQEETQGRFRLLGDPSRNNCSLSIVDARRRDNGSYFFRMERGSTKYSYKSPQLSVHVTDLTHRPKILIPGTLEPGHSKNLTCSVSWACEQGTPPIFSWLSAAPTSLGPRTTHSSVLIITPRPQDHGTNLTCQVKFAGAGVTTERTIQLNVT
T3 sequence (P20138 18-364 limits assumed): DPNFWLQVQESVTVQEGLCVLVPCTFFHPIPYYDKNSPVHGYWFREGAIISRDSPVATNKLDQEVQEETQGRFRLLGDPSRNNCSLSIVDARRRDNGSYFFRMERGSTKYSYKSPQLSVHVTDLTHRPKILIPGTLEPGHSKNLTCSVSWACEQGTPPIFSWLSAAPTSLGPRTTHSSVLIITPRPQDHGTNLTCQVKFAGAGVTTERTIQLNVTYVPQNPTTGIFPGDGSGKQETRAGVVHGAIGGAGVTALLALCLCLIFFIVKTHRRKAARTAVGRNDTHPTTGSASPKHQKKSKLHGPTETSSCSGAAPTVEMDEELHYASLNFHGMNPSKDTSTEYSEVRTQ

Row | Kd [1] | koff [1] | kon [1] | Kd [2] | koff [2] | kon [2] | Kd [3] | koff [3] | kon [3] | Kd [4] | koff [4] | kon [4] | EC50 (read off the curve) [5] | Binder
1 | 1.14 nM | 0.000516 s⁻¹ | 454000 M⁻¹ s⁻¹ | 4.28 nM | 0.00279 s⁻¹ | 653000 M⁻¹ s⁻¹ | – | – | – | – | – | – | – | anti-human CD33 antibody Ab2 (antibody, human IgG1, kappa, L234A L235A, V domains shown, Fully human IgG1AAA with S124C and A378C (EU numbering); also called anti-human CD33 Ab2) VH: not shown VL: DIQMTQSPSSLSASVGDRVTITCQASQPTFNYLNWYQQKPGKAPKLLIYDASNLQTGVPSRFSGSGSGTDFTFTISSLQPEDIATYYCQQYEDLPTFGPGTKVDIKR
2 | – | – | – | – | – | – | 1.47 nM | 0.000645 s⁻¹ | 439000 M⁻¹ s⁻¹ | 4.65 nM | 0.00478 s⁻¹ | 1.03e+06 M⁻¹ s⁻¹ | – | anti-human CD33 Ab2 GC conjugate of Example 1b (antibody, human IgG1, kappa, L234A L235A, V domains shown, glucocorticoid receptor agonist payload-linker GC-L (Preparation 8, maleimide) conjugated to the engineered cysteines at positions 124 and 378 (EU numbering) of the heavy chain; n is 4 (average DAR 3.92 to 3.97)) VH: not shown VL: DIQMTQSPSSLSASVGDRVTITCQASQPTFNYLNWYQQKPGKAPKLLIYDASNLQTGVPSRFSGSGSGTDFTFTISSLQPEDIATYYCQQYEDLPTFGPGTKVDIKR
3 | 0.854 nM | 0.000486 s⁻¹ | 570000 M⁻¹ s⁻¹ | 0.812 nM | 0.00108 s⁻¹ | 1.34e+06 M⁻¹ s⁻¹ | – | – | – | – | – | – | ~5 ng/mL | anti-human CD33 antibody Ab3 (antibody, human IgG1, kappa, L234A L235A, V domains shown, Fully human IgG1AAA with S124C and A378C (EU numbering)) VH: not shown VL: DIQMTQSPSSLSASVGDRVTITCQASQPTYIYLNWYQQKPGKAPKLLIYDASNLQTGVPSRFSGSGSGTDFTFTISSLQPEDIATYYCQQYEDLPTFGPGTKVDIKR
4 | 3.4 nM | 0.00118 s⁻¹ | 346000 M⁻¹ s⁻¹ | – | – | – | – | – | – | – | – | – | – | anti-human CD33 antibody Ab1 (antibody, human IgG1, kappa, L234A L235A, V domains shown, Fully human IgG1 with L234A, L235A, P329A (IgG1AAA, effector null) and engineered cysteines S124C and A378C (EU numbering), all already in the HC entry) VH: not shown VL: DIQMTQSPSSLSASVGDRVTITCQASQDVFRYLNWYQQKPGKAPKLLIYDASNLQTGVPSRFSGSGSGTDFTFTISSLQPEDIATYYCQQYEDLPTFGPGTKVDIKR
